# In article doi:10.1101/2020.12.08.416958:
# Molecular target: L-lactate oxidase (UniProt Q44467)
# Test: ITC
# UniProt Q44467, sequence (Q44467 whole entry): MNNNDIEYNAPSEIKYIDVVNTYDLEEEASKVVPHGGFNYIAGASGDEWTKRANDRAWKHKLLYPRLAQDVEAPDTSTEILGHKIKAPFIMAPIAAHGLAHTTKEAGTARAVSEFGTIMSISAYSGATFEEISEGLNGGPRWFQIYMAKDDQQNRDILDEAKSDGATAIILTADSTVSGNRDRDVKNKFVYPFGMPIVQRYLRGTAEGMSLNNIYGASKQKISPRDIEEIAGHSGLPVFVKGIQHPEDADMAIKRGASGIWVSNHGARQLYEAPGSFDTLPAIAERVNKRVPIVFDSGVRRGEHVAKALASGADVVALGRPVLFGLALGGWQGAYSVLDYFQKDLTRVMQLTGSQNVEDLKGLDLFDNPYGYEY
substance,measurement,value
"Poly-L-lysine hydrobromide (molecular weight 4,000-15,000 Da) (peptide)",maximum enthalpy,0.7 kcal/mol
